Entries after “also recorded” stand apart in the source; their conditions may differ.
Experiments:
basal-A TNBCs = assay: Bortezomib on TNBC cell lines in vitro; format: cell-based, human
basal-A TNBC tumors = conditions: mouse, in vivo
Description: We next tested whether proteasome inhibition inhibited the growth of basal-like TNBC tumors in mice.

breast cancer cell lines [1] = assay: Sphere (mammosphere) formation assay; format: cell-based, human
Protocol: (§1) For colony formation assay, 1,000 viable cells were treated for 6 h in round bottom 96-well plates and then transferred to 10-cm plates in serum-containing medium. Medium was replaced every 3 d. After 8-14 d, cells were fixed in methanol (−20 C) and stained with crystal violet. For sphere formation assay, 1,000/ml viable cells were treated for 6 h in round bottom 96-well plates and then cultured in suspension in serum-free DMEM/F12 1:1 (Invitrogen), supplemented with EGF (20 ng/ml, BD Biosciences), B27 (1:50, Invitrogen), 0.4% bovine serum albumin (Sigma) and 4 μg/ml insulin (Sigma). Spheres were counted after 1 or 2 weeks.

breast cancer cell lines [2] = assay: Colony formation assay; format: cell-based, human; conditions: AsiC 4 uM, paclitaxel 100 nM
Protocol: as §1

AKT1 = AKT1 mRNA and protein knockdown in breast cancer cell lines; format: cell-based, human; parameters: AKT1 protein silencing by flow cytometry: dose or concentration left out as unconfirmed; conditions: for AKT1 mRNA and protein knockdown across cell lines: basal-A, luminal, basal-B lines, fibroblasts
Protocol: (§2) For uptake and silencing treatment, cells were plated at low density (10,000 cells/well in 96-well plates) and treated immediately. All AsiC and siRNA treatments were performed in either OptiMEM or WIT medium. Cell viability was assessed by CellTiter-Glo (Promega) or by Trypan-Blue staining in 96-well plates.
For flow cytometry, cells were stained as previously described (Yu, F. et al (2007). let-7 Regulates Self Renewal and Tumorigenicity of Breast Cancer Cells. Cell 131, 1109-1123. ), briefly, direct immunostaining of EpCAM and AKT1 was performed using 1:50 dilutions of hAb for 30-60 minutes at 4° C. (BioLegend/BD). Cells were stained in PBS containing 0.5% FCS, 1 mM EDTA, and 25 mM HEPES. Samples were washed twice in the same buffer. Data was acquired using FACS-Canto II (BD Biosciences). Analyses were performed in triplicate and 10,000 gated events/sample were counted. All data analysis was performed using FlowJo (Treestar Inc.).
qRT-PCR analysis was performed as described (Petrocca, F., et al. (2008). E2F1-regulated microRNAs impair TGFbeta-dependent cell-cycle arrest and apoptosis in gastric cancer. Cancer Cell 13, 272-286). Briefly, total RNA was extracted with Trizol (Invitrogen) and cDNA prepared from 1000 ng total RNA using Thermoscript RT kit (Invitrogen) as per the […] (Applied Biosystems) and a BioRad C1000 Thermal Cycler (Biorad). Relative CT values were normalized to GAPDH and converted to a linear scale.

MB468-luc tumors = assay: Tumor inhibition, EpCAM+ MB468-luc xenograft; format: in vivo, nude mice; conditions: 5 mg/kg sc every 3 d (72 h) for 2 wks
Protocol: (§3) For tumor inhibition studies, MB468-luc (5×10^6) and MB231-luc-mCherry (5×10^5) cells trypsinized with Tryple Express (Invitrogen), resuspended in a 1:1 WIT-Matrigel solution and injected subcutaneously in the flank of 8-week old female Nu/J mice (Stock #002019, Jackson Laboratories). Tumors size was analyzed daily using the IVIS Spectra, after 5 days tumors were clearly visible. […] Mice were treated every 72 h for 14 days.

[3] = system: basal-A, luminal and basal-B breast cancer cell lines; assay: Cell proliferation/viability by CellTiter-Glo in 10 breast cancer cell lines; format: cell-based, human
Description: To explore whether EpCAM-AsiCs could be used as anti-tumor agents in breast cancer, we examined by CellTiterGlo assay the effect of AsiCs directed against PLK1, a kinase required for mitosis, on survival of 10 breast cancer cell lines that included 5 basal-A TNBCs, 2 luminal cell lines, and 3 basal-B TNBCs. […] The anti-proliferative effect strongly correlated with EpCAM expression (FIG. 2B). The reduction in viable EpCAM+ cells after knockdown was due to induction of apoptosis, assessed by annexin V-propidium iodide staining and caspase activation (data not shown). To determine whether ligation of the EpCAM aptamer contributed to the anti-proliferative effect of the EpCAM-AsiC, we compared survival of cells that were treated with the PLK1 EpCAM-AsiC with cells treated with the aptamer on its own (FIG. 2C). […] Thus the PLK1 EpCAM-AsiC asserts its specific anti-tumor effect on EpCAM+ breast cancer cells by gene knockdown.
as §2

Argonaute (AGO) = assay: PLK1 siRNA association with Argonaute (pan-AGO immunoprecipitation, qRT-PCR); format: cell-based, human; conditions: MDA-MB-468 cells treated 2 days
Description: MB-468 cells, treated with PLK1 EPCAM-AsiC or siRNA for 2 days, were lysed, and cell lysates were immunoprecipitated with pan-AGO antibody or IgG isotype control. The amount of PLK1 siRNA in the immunoprecipitates was quantified by Taqman qRT-PCR, presented as log2 mean with SEM, relative to miR-16. **, P<0.01 by Student's t-test relative to siRNA-treated cells. ND, not detectable. […] This is likely because most RNAs that are taken up by cells are not released from endosomes to the cytosol (A. Wittrup et al., Visualizing lipid-formulated siRNA release from endosomes and target gene knockdown. Nature Biotechnology 2015, in press).
Uptake was clearly detected at 22 hr, but increased greatly after 43 hr. To test whether EpCAM-AsiCs are specifically taken up by EpCAM bright cell lines, the 3′ end of the antisense strand of the AsiC was fluorescently labeled. […] Previous studies have shown that AsiCs are processed within cells by Dicer to release the siRNA from the aptamer (10, 12, 15).

MB231-luc-mCherry tumors = assay: Tumor inhibition, EpCAM− MB231-luc-mCherry xenograft; format: in vivo, nude mice; conditions: 5 mg/kg sc every 3 d (72 h) for 2 wks
Protocol: as §3

[4] = system: eGFP expression in BPLER and BPE cells; assay: eGFP knockdown in GFP-expressing BPLER and BPE cells; format: cell-based, human; conditions: AsiC 4 μM without lipid, siRNA 100 nM with Dharmafect, 72 hours
Protocol: FIG. 21A depicts the design of EpCAM-AsiC, containing an EpCAM aptamer and a PLK1 siRNA (sense strand disclosed as SEQ ID NO: 1 and antisense strand disclosed as SEQ ID NO: 2). […] EpCAM-AsiC targeting GFP was Alexa647 or Cy3 labeled at the 3′ end of the antisense siRNA strand and incubated with BPLER and BPE cells. Uptake was assessed 24 hours later by flow cytometry (FIG. 21C). Data are representative of 3 independent experiments. Cy3 and Alexa647-labeled EpCAM-AsiC was taken up by MB468 and BPLER (EpCAM+ cells) respectively and not by BPE (EpCAM−). MFI of each peak is shown (mock, gray). FIG. 21D depicts graphs of experiments in which, to test for gene silencing, BPLER and BPE were treated with EpCAM-AsiC targeting GFP (4 μM) and compared to Transfection controls using Dharmafect and GFP-siRNA (100 nM). Knockdown was assessed by flow cytometry 72 hours after incubation. Controls were mock and Dhrmafect only treatment (lipid). (n=4).
as §2
Cells were transfected with Dharmafect I per the manufacturer's protocol. See FIG. 9 for all siRNA sequences.

MB468-luc cells = assay: Tumor initiation by ex vivo treated EpCAM+ cells in nude mice; conditions: cells treated ex vivo 24 h/overnight, then implanted; imaged 20 days; listed as EpCAM-AsiC targeting GFP
Protocol: For tumor initiation studies 8-week old female Nu/J mice (Stock #002019, Jackson Laboratories) were injected subcutaneously with MB468-luc (5×10^6) cells pretreated for 24 h with EpCAM-AsiC-GFP, EpCAM-AsiC-PLK1 or untreated. Cells were trypsinized with Tryple Express (Invitrogen), resuspended in WIT media and injected subcutaneously in the flank. Following intraperitoneal injection of 150 mg/kg D-luciferin (Caliper Life Sciences) luminescent images of the whole body were taken every 5 days for a total of 20 days using the IVIS Spectra system (Caliper Life Sciences).

## CC(C)C[C@H](NC(=O)[C@H](Cc1ccccc1)NC(=O)c1cnccn1)B(O)O [bortezomib]
basal-A TNBCs
  killing and T-IC function (colony, mammosphere): both killed basal-A TNBCs and also blocked T-IC function
basal-A TNBCs; 24 hr
  viable cells after treatment: ~40%
basal-A TNBC tumors
  penetration into solid tumors: does not penetrate well into solid tumors

## CC(=O)O[C@H]1C(=O)[C@@]2(C)[C@H]([C@H](OC(=O)c3ccccc3)[C@]3(O)C[C@H](OC(=O)[C@H](O)[C@@H](NC(=O)c4ccccc4)c4ccccc4)C(C)=C1C3(C)C)[C@]1(OC(C)=O)CO[C@@H]1C[C@@H]2O [paclitaxel, reference compound]
Breast cancer cell lines [1]
  sphere/mammosphere formation, cell lines tested: reduced sphere-formation in all
Breast cancer cell lines [2]
  colony formation, EpCAM+ basal-A and luminal lines: resistant clones emerged
  colony formation, EpCAM− basal-B lines: reducing colony formation but still resistant clones invariably emerged
  colony formation, cell lines tested: decreased colony formation in all cells lines

## AKT1 siRNA: AKT1 siRNA, sense SEQ ID NO: 29, antisense SEQ ID NO: 30 (sense GCUGGAGAACCUCAUGCUG; antisense CAGCAUGAGGUUCUCCAGC; listed as RNA, chemistry not given here) [reference compound]
AKT1
  AKT1 mRNA and protein knockdown across cell lines: comparably knocked down expression in all the cell lines studied

## PLK1 siRNA: PLK1 siRNA, sense SEQ ID NO: 31, antisense SEQ ID NO: 32 (sense UGAAGAAGAUCACCCUCCUUA; antisense UAAGGAGGGUGAUCUUCUUCA; listed as RNA, chemistry not given here) [reference compound]
MB468-luc tumors
  growth of EpCAM+ MB468 tumors: continued to grow without significant change; also recorded: neither of which had any anti-tumor activity
[3]
  cell proliferation/viability, all cell lines tested: suppressed the growth of all the cell lines
Argonaute (AGO)
  PLK1 siRNA bound to Ago / in the RISC: No PLK1 siRNA bound to Ago

B1: AKT1 EpCAM-AsiC: EpCAM aptamer-AKT1 siRNA chimera, sense SEQ ID NO: 23, antisense SEQ ID NO: 24 (nucleic acid)
sense: GCGACUGGUUACCCGGUCGUUGCUGGAGAACCUCAUGCUGTT
antisense: CAGCAUGAGGUUCUCCAGCTT
modifications: chemistry not fully specified
AKT1; EpCAM-AsiC for 5 days
  AKT1 protein silencing by flow cytometry: specific AKT1 protein silencing
AKT1; listed as EpCAM-AsiC targeting AKT1
  AKT1 mRNA and protein knockdown across cell lines: decreased AKT1 mRNA and protein levels
AKT1; listed as EpCAM-AsiCs targeting AKT1
  AKT1 mRNA and protein knockdown across cell lines: only in EpCAM^bright luminal and basal-A TNBCs

B2: GFP EpCAM-AsiC: EpCAM aptamer-GFP siRNA chimera, sense SEQ ID NO: 25, antisense SEQ ID NO: 26 (nucleic acid)
sense: GCGACUGGUUACCCGGUCGUUUGGCUACGUCCAGGAGCGCATT
antisense: UGCGCUCCUGGACGUAGCCTT
modifications: DNA at T, 2'-fluoro at CU, RNA at AG, backbone not given here; EpCAM aptamer fused to sense strand
MB468-luc tumors; listed as GFP AsiC
  growth of EpCAM+ MB468 tumors: did not increase in size as much as control untreated mice
MB468-luc tumors; listed as eGFP-targeting AsiCs
  growth of EpCAM+ MB468 tumors: continued to grow
MB231-luc-mCherry tumors; listed as EpCAM-Asic targeting GFP
  growth of EpCAM− MB231 tumors: suppress tumor growth in both EpCAM+ and EpCAM-tumors but didn't eliminate tumors
MB231-luc-mCherry tumors; listed as eGFP-targeting AsiCs
  growth of EpCAM− MB231 tumors: continued to grow
Breast cancer cell lines [1]
  sphere/mammosphere formation, cell lines tested: had no effect
AKT1; listed as AsiCs targeting eGFP
  AKT1 mRNA and protein knockdown across cell lines: had no effect on AKT1 levels
AKT1; listed as EpCAM-AsiC targeting GFP
  AKT1 mRNA and protein knockdown across cell lines: did not effect any of the cell lines
[4]; listed as EpCAM-AsiCs targeting GFP
  eGFP knockdown, BPLER vs BPE: selectively knocked down expression in BPLER
[4]; listed as eGFP EpCAM-AsiCs
  eGFP knockdown, BPLER vs BPE: selectively knocked down expression only in BPLER
Breast cancer cell lines [2]
  colony formation, cell lines tested: had no effect
MB468-luc cells
  tumor initiation, EpCAM+ cells: displayed tumors after 5 days; also recorded: displayed increase in tumor initiation

Source: patent US11180762B2, “Methods and compositions for the treatment of cancer” (CHILDREN'S MEDICAL CENTER CORPORATION, priority 2014, dated 2021)
